The supplement of paper PMC9732359
± gives the uncertainty stated by the source.

assay: protein stability index of a GFP-peptide fusion (yeast GPS) (PSI 1-4); higher = more stable; sorted into four equal gates, so the index is relative within each strain; conditions: san1∆
Procedure, shortened: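 The protein stability index of a peptide was calculated by multiplying its read frequency in each gate by that gate's number and adding the products. The peptides were tiled 17-residue stretches of yeast proteins, fused downstream of GFP on a Cherry-expressing plasmid and carried in yeast as a pooled library. Mid-log cultures in leucine-free medium were sorted into four equal gates by GFP/Cherry ratio, and each gate's plasmids were PCR-amplified and Illumina-sequenced.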

Sequence	protein stability index
ENYEGKQDKTLQKVENQ [YIL149C/MLP2]	2.8 ± 0.17
EPQGAVTHMDQIFVRGS [SMD3]	2.62 ± 0.099

same assay, conditions: ubr1∆

Sequence	protein stability index
EALVQAFAFCIPVYCFS [YCG1]	1.51 ± 0.064
EANWPLPVNIRRIIQNA [RPO21]	1.04 ± 0.064
EARLFNIWGTVRTNRFD [ECM29]	2.32 ± 0.28
EAVKQAAKIIYLAHEDN [PRE10]	2.55 ± 0.14
EAVVDQDVQRTCILHGP [FAS1]	3.38 ± 0.051
ECFISMQSTSPAVKQWD [SWI1]	2.65 ± 0.06
ECQVIAAEGLCKLFLAD [YCG1]	3.25 ± 0.036
EDEEKILDNTENYDDTE [DSN1]	3.44 ± 0.072
EDEMMHEEDQKTNIIEK [RPN12]	2.85 ± 0.13
EDETLRRIKEAEENLKK [YIL149C/MLP2]	3.69 ± 0.13
EDFEHNNLSSMNLDFDI [MCD1]	3.24 ± 0.033
EDGTSASFQIVEEDHTL [RPC19]	3.25 ± 0.13
EDHDVHSNESSNETIGE [IRR1]	3.06 ± 0.075
EDIIKRTSPIDNVSNTH [NUT2]	3.04 ± 0.049
EDITEPKPDKPSGRTRG [ESC2]	3.26 ± 0.1
EDMETQASDPSKKKKNI [RPC53]	3.33 ± 0.15
EDPVTVEYLTRYVAGVQ [PRE6]	2.54 ± 0.067
EDRNKIHQYLFQEGVVV [RPS10A]	2.61 ± 0.058
EDRNQRIKEMYWKLWID [FAS1]	3.08 ± 0.087
EEAGSPLVYRHELITNI [RPB9]	3.38 ± 0.06
EEDFYTVVGNASFGKNL [DSN1]	3.12 ± 0.14
EEEIKKFDSRIRGILMA [PRP8]	3.02 ± 0.051
EEEMAPYYKYLCEEYLV [RPN7]	2.64 ± 0.093
EEGRAIPGEYITYALSG [RPS21B]	2.96 ± 0.044
EEKEEENGDEDEDEDED [QCR6]	3.64 ± 0.08

Sequence	protein stability index
EELKDSEINEILARNDE [SNF2]	3.32 ± 0.089
EENNYQYGYSGSSAGMN [SNF6]	2.5 ± 0.065
EENWDDVEVDDDFTNEL [SEM1]	3.3 ± 0.19
EEPAKEEAPAPTPAASA [FAS2]	2.98 ± 0.14
EEQLDALECRLASAIAS [CSN12]	1.81 ± 0.088
EEQLDLLSAILDPSKSK [MED11]	3.64 ± 0.2
EETSHLLTVTPGPRLLY [RPN10]	3.06 ± 0.057
EETYEEKPQFKDGETTD [RPO26]	3.34 ± 0.14
EEYRKQLDKKNELQKFQ [SMC1]	3.45 ± 0.1
EEYVINLLKVSVDICNN [ECM29]	2.65 ± 0.053
EFFNPEIFHLLQPLEEG [SIN4]	2.07 ± 0.056
EFIAAVNNPQEETSHLL [RPN10]	2.82 ± 0.068
EGDIQVLKSYGAAPYAA [RPT1]	2.82 ± 0.063
EGIKVVDIDDPDMMVDS [SNF2]	2.97 ± 0.091
EGKKVMAPYLPGSRASS [RPN2]	2.54 ± 0.052
EGLDLLKLCVQELEKRM [PRE1]	2.06 ± 0.059
EGLIIDTDKLPIKNRTS [SIN4]	2.94 ± 0.063
EGNAGGDQKTSENRNNI [YOR098C/NUP1]	3.36 ± 0.074
EGNQGSLQEDVSFDFNG [MED8]	3.2 ± 0.07
EHASLLVRDSKPSKPFN [MED8]	2.55 ± 0.052
EHGMNAPSVPEFIYLTK [SNF2]	3.15 ± 0.059
EHHSSVKYASPNLNMKY [FAS2]	2.92 ± 0.04
EHKTPELISFKERTKSL [YIL149C/MLP2]	3.22 ± 0.079
EHNPSAHTASVGVVFGS [COR1]	2.22 ± 0.27
EIARQMRDKSFGRTLAS [RPL12A]	2.72 ± 0.18

Sequence	protein stability index
EIELKKLPKVYKRSIVR [SWI1]	2.91 ± 0.074
EIENATKDIFPLQNIHV [RPS1A]	2.25 ± 0.083
EIEQLDQYIQKQVQISH [YGL172W/NUP49]	2.87 ± 0.059
EIEVDEMEVDAEGEEVE [RPN1]	3.49 ± 0.067
EINNLIQLPASLAATYS [ARP9]	1.65 ± 0.047
EIYTVEDRPPEYWAQRK [ISW2]	3.31 ± 0.13
EKADYERELISNIEQTE [YIL149C/MLP2]	3.6 ± 0.098
EKFSSFIESIVVDFKNK [SNF12]	2.77 ± 0.061
EKKQKTESQDVETRVQN [DPB4]	3.3 ± 0.056
EKLINNSDDCMMEEIIN [ECM29]	3.13 ± 0.12
EKLLRHVDSLIEDFVDG [SRB7]	3.24 ± 0.057
EKLVSDLRLIKVPQQAA [SMC1]	3.3 ± 0.14
EKPLILADYIVEVLLVN [NUT1]	1.32 ± 0.039
EKTINDLQRTQTLSEKE [YIL149C/MLP2]	2.94 ± 0.042
EKYAAAAPAATSAASGD [RPP0]	2.78 ± 0.048
ELALIEEAYDNPHDTLN [PRP8]	3.41 ± 0.07
ELALLNHWRQNKGRAVY [BRR2]	1.1 ± 0.083
ELDTASRILKAQSRNVE [YGR119C/NUP57]	2.43 ± 0.056
ELENFLDNFETKTEALL [YJL041W/NSP1]	1.81 ± 0.1
ELGEQKCQELVTNIRRI [RRP46]	1.98 ± 0.071
ELHKEGTISKLENKENG [SMC2]	1.62 ± 0.075
ELKDICSFAVTKSSLND [YML103C/NUP188]	3.02 ± 0.05
ELLKSSLQKAGSKMEAK [AAR2]	3.07 ± 0.079
ELMAMNITPRLYTDRSR [RPB2]	1.96 ± 0.074
ELMDRTGLKLYSRITLI [RPP1]	2.43 ± 0.12

Sequence	protein stability index
ELPKFILSDSPLELSAP [DIS3]	3.04 ± 0.092
ELQGYIELSVPDRQSMD [SRB5]	1.17 ± 0.21
ELSDKEIYTVEDRPPEY [ISW2]	3.42 ± 0.12
ELSEEKYIVKASSGPRY [RPT4]	2.41 ± 0.18
ELTDEYLAENPDPNFEN [PRP8]	3.32 ± 0.053
ELTLAEQQVKEAEMAYV [SMC4]	2.81 ± 0.074
ELWRKEQKLQTVLETLL [SMC3]	3.31 ± 0.064
EMIDSHIKEASEEVDDL [SNF2]	3.09 ± 0.07
EMVKDRGYFITQEEVEL [RPB5]	2.1 ± 0.042
ENALIELKNELAKTKEN [YIL149C/MLP2]	2.93 ± 0.08
ENESTNYQYKIQELRKL [MED7]	2.69 ± 0.06
ENGTLLVPPPRTIANQD [RPR2]	2.99 ± 0.036
ENIEPLDPINLPLDSQD [PRP8]	3.04 ± 0.067
ENLNRNWRGREHWKVRN [BRN1]	3.5 ± 0.08
ENPAFLPGTNNNSNSNN [SEC65]	2.86 ± 0.067
ENPNFWRQFGNRMQISP [GRR1]	2.76 ± 0.12
ENQPFHGIKDIPIGHVH [AAR2]	2.67 ± 0.092
ENSYLRGLTPQEFFFHA [RPO21]	2.64 ± 0.047
ENVGTRLLPINVNKKAL [MED11]	2.98 ± 0.22
ENVILGQMAPIGTGAFD [RPO21]	2.54 ± 0.056
ENYEGKQDKTLQKVENQ [YIL149C/MLP2]	3.21 ± 0.21
EPQGAVTHMDQIFVRGS [SMD3]	2.56 ± 0.11
